Among the data in patent US20210139548A1 (published 2021) are Ki values, retold here.

The labels stand for the following.
B1: Compound 124 (peptide)
peptide: Isovaleryl-APEK([AEEA-AEEA-γGlu-C18 diacid])PEEDAAPEEIQRYYVSLRHYYNWLTRQRY-NH2
SMILES: CC[C@H](C)[C@H](NC(=O)[C@H](CCC(=O)O)NC(=O)[C@H](CCC(=O)O)NC(=O)[C@@H]1CCCN1C(=O)[C@H](C)NC(=O)[C@H](C)NC(=O)[C@H](CC(=O)O)NC(=O)[C@H](CCC(=O)O)NC(=O)[C@H](CCC(=O)O)NC(=O)[C@@H]1CCCN1C(=O)[C@H](CCCCNC(=O)COCCOCCNC(=O)COCCOCCNC(=O)CC[C@H](NC(=O)CCCCCCCCCCCCCCCCC(=O)O)C(=O)O)NC(=O)[C@H](CCC(=O)O)NC(=O)[C@@H]1CCCN1C(=O)[C@H](C)NC(=O)CC(C)C)C(=O)N[C@@H](CCC(N)=O)C(=O)N[C@@H](CCCNC(=N)N)C(=O)N[C@@H](Cc1ccc(O)cc1)C(=O)N[C@@H](Cc1ccc(O)cc1)C(=O)N[C@H](C(=O)N[C@@H](CO)C(=O)N[C@@H](CC(C)C)C(=O)N[C@@H](CCCNC(=N)N)C(=O)N[C@@H](Cc1c[nH]cn1)C(=O)N[C@@H](Cc1ccc(O)cc1)C(=O)N[C@@H](Cc1ccc(O)cc1)C(=O)N[C@@H](CC(N)=O)C(=O)N[C@@H](Cc1c[nH]c2ccccc12)C(=O)N[C@@H](CC(C)C)C(=O)N[C@H](C(=O)N[C@@H](CCCNC(=N)N)C(=O)N[C@@H](CCC(N)=O)C(=O)N[C@@H](CCCNC(=N)N)C(=O)N[C@@H](Cc1ccc(O)cc1)C(N)=O)[C@@H](C)O)C(C)C
B2: Compound 126 (peptide)
peptide: Isovaleryl-APAK([AEEA-AEEA-γGlu-C18 diacid])PEEDSSPEELQRYYVSLRHYYNWLTRQRY-NH2
SMILES: CC(C)CC(=O)N[C@@H](C)C(=O)N1CCC[C@H]1C(=O)N[C@@H](C)C(=O)N[C@@H](CCCCNC(=O)COCCOCCNC(=O)COCCOCCNC(=O)CC[C@H](NC(=O)CCCCCCCCCCCCCCCCC(=O)O)C(=O)O)C(=O)N1CCC[C@H]1C(=O)N[C@@H](CCC(=O)O)C(=O)N[C@@H](CCC(=O)O)C(=O)N[C@@H](CC(=O)O)C(=O)N[C@@H](CO)C(=O)N[C@@H](CO)C(=O)N1CCC[C@H]1C(=O)N[C@@H](CCC(=O)O)C(=O)N[C@@H](CCC(=O)O)C(=O)N[C@@H](CC(C)C)C(=O)N[C@@H](CCC(N)=O)C(=O)N[C@@H](CCCNC(=N)N)C(=O)N[C@@H](Cc1ccc(O)cc1)C(=O)N[C@@H](Cc1ccc(O)cc1)C(=O)N[C@H](C(=O)N[C@@H](CO)C(=O)N[C@@H](CC(C)C)C(=O)N[C@@H](CCCNC(=N)N)C(=O)N[C@@H](Cc1c[nH]cn1)C(=O)N[C@@H](Cc1ccc(O)cc1)C(=O)N[C@@H](Cc1ccc(O)cc1)C(=O)N[C@@H](CC(N)=O)C(=O)N[C@@H](Cc1c[nH]c2ccccc12)C(=O)N[C@@H](CC(C)C)C(=O)N[C@H](C(=O)N[C@@H](CCCNC(=N)N)C(=O)N[C@@H](CCC(N)=O)C(=O)N[C@@H](CCCNC(=N)N)C(=O)N[C@@H](Cc1ccc(O)cc1)C(N)=O)[C@@H](C)O)C(C)C
B3: Compound 130 (peptide)
peptide: Isovaleryl-APEK([AEEA-AEEA-γGlu-C18 diacid])PEEDTSAEELQRYYVSLRHYYNWLTRQRY-NH2
SMILES: CC(C)CC(=O)N[C@@H](C)C(=O)N1CCC[C@H]1C(=O)N[C@@H](CCC(=O)O)C(=O)N[C@@H](CCCCNC(=O)COCCOCCNC(=O)COCCOCCNC(=O)CC[C@H](NC(=O)CCCCCCCCCCCCCCCCC(=O)O)C(=O)O)C(=O)N1CCC[C@H]1C(=O)N[C@@H](CCC(=O)O)C(=O)N[C@@H](CCC(=O)O)C(=O)N[C@@H](CC(=O)O)C(=O)N[C@H](C(=O)N[C@@H](CO)C(=O)N[C@@H](C)C(=O)N[C@@H](CCC(=O)O)C(=O)N[C@@H](CCC(=O)O)C(=O)N[C@@H](CC(C)C)C(=O)N[C@@H](CCC(N)=O)C(=O)N[C@@H](CCCNC(=N)N)C(=O)N[C@@H](Cc1ccc(O)cc1)C(=O)N[C@@H](Cc1ccc(O)cc1)C(=O)N[C@H](C(=O)N[C@@H](CO)C(=O)N[C@@H](CC(C)C)C(=O)N[C@@H](CCCNC(=N)N)C(=O)N[C@@H](Cc1c[nH]cn1)C(=O)N[C@@H](Cc1ccc(O)cc1)C(=O)N[C@@H](Cc1ccc(O)cc1)C(=O)N[C@@H](CC(N)=O)C(=O)N[C@@H](Cc1c[nH]c2ccccc12)C(=O)N[C@@H](CC(C)C)C(=O)N[C@H](C(=O)N[C@@H](CCCNC(=N)N)C(=O)N[C@@H](CCC(N)=O)C(=O)N[C@@H](CCCNC(=N)N)C(=O)N[C@@H](Cc1ccc(O)cc1)C(N)=O)[C@@H](C)O)C(C)C)[C@@H](C)O
B4: Compound 132 (peptide)
peptide: Isovaleryl-APEK([AEEA-AEEA-γGlu-C18 diacid])PEEDASPEELQKYYVTLRHYYNWLTRQRY-NH2
SMILES: CC(C)CC(=O)N[C@@H](C)C(=O)N1CCC[C@H]1C(=O)N[C@@H](CCC(=O)O)C(=O)N[C@@H](CCCCNC(=O)COCCOCCNC(=O)COCCOCCNC(=O)CC[C@H](NC(=O)CCCCCCCCCCCCCCCCC(=O)O)C(=O)O)C(=O)N1CCC[C@H]1C(=O)N[C@@H](CCC(=O)O)C(=O)N[C@@H](CCC(=O)O)C(=O)N[C@@H](CC(=O)O)C(=O)N[C@@H](C)C(=O)N[C@@H](CO)C(=O)N1CCC[C@H]1C(=O)N[C@@H](CCC(=O)O)C(=O)N[C@@H](CCC(=O)O)C(=O)N[C@@H](CC(C)C)C(=O)N[C@@H](CCC(N)=O)C(=O)N[C@@H](CCCCN)C(=O)N[C@@H](Cc1ccc(O)cc1)C(=O)N[C@@H](Cc1ccc(O)cc1)C(=O)N[C@H](C(=O)N[C@H](C(=O)N[C@@H](CC(C)C)C(=O)N[C@@H](CCCNC(=N)N)C(=O)N[C@@H](Cc1c[nH]cn1)C(=O)N[C@@H](Cc1ccc(O)cc1)C(=O)N[C@@H](Cc1ccc(O)cc1)C(=O)N[C@@H](CC(N)=O)C(=O)N[C@@H](Cc1c[nH]c2ccccc12)C(=O)N[C@@H](CC(C)C)C(=O)N[C@H](C(=O)N[C@@H](CCCNC(=N)N)C(=O)N[C@@H](CCC(N)=O)C(=O)N[C@@H](CCCNC(=N)N)C(=O)N[C@@H](Cc1ccc(O)cc1)C(N)=O)[C@@H](C)O)[C@@H](C)O)C(C)C
B5: Compound 131 (peptide)
peptide: Isovaleryl-APEK([AEEA-AEEA-γGlu-C18 diacid])AEEDASPEELQRYYVELRHYYNWLTRQRY-NH2
SMILES: CC(C)CC(=O)N[C@@H](C)C(=O)N1CCC[C@H]1C(=O)N[C@@H](CCC(=O)O)C(=O)N[C@@H](CCCCNC(=O)COCCOCCNC(=O)COCCOCCNC(=O)CC[C@H](NC(=O)CCCCCCCCCCCCCCCCC(=O)O)C(=O)O)C(=O)N[C@@H](C)C(=O)N[C@@H](CCC(=O)O)C(=O)N[C@@H](CCC(=O)O)C(=O)N[C@@H](CC(=O)O)C(=O)N[C@@H](C)C(=O)N[C@@H](CO)C(=O)N1CCC[C@H]1C(=O)N[C@@H](CCC(=O)O)C(=O)N[C@@H](CCC(=O)O)C(=O)N[C@@H](CC(C)C)C(=O)N[C@@H](CCC(N)=O)C(=O)N[C@@H](CCCNC(=N)N)C(=O)N[C@@H](Cc1ccc(O)cc1)C(=O)N[C@@H](Cc1ccc(O)cc1)C(=O)N[C@H](C(=O)N[C@@H](CCC(=O)O)C(=O)N[C@@H](CC(C)C)C(=O)N[C@@H](CCCNC(=N)N)C(=O)N[C@@H](Cc1c[nH]cn1)C(=O)N[C@@H](Cc1ccc(O)cc1)C(=O)N[C@@H](Cc1ccc(O)cc1)C(=O)N[C@@H](CC(N)=O)C(=O)N[C@@H](Cc1c[nH]c2ccccc12)C(=O)N[C@@H](CC(C)C)C(=O)N[C@H](C(=O)N[C@@H](CCCNC(=N)N)C(=O)N[C@@H](CCC(N)=O)C(=O)N[C@@H](CCCNC(=N)N)C(=O)N[C@@H](Cc1ccc(O)cc1)C(N)=O)[C@@H](C)O)C(C)C

*1 amine or outer side, *2 acyl side, *3 side chain or, on linkers, in order; H or OH if unused. Side-chain parts run from the residue outwards. The star is where a group is joined. C18 diacid = O=C(O)CCCCCCCCCCCCCCCCC(=O)*; γGlu = O=C(O)[C@H](CCC(=O)[*:2])N[*:1]; Isovaleryl = CC(C)CC(=O)*; AEEA = NCCOCCOCC(=O)O

This assay deals with T1, human neuropeptide Y2 receptor (human, UniProt P49146 1-381).
T1 construct: whole, on cells; also called hNPY2 receptor; hNPY2-R
T1 sequence (looked up): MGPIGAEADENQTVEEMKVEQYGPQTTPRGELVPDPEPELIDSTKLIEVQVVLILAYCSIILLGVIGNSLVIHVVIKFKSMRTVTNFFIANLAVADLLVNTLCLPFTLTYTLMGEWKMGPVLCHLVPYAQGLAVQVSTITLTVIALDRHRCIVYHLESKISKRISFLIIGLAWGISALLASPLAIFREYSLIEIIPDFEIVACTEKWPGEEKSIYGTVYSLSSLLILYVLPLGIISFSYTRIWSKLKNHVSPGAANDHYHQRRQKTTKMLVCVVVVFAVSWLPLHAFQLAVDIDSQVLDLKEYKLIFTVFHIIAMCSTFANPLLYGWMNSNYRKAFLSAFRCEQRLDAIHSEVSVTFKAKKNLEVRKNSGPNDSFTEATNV
In words: radioligand competition (125I-PYY(1-36)), hNPY2R membranes. Put shortly: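 Commercial human Y2 receptor membranes (0.5 μg protein/well) were incubated with peptide for 2 h at room temperature in 50 mM HEPES, 5 mM MgCl₂, 1 mM CaCl₂, pH 7.4, with 0.2% ovalbumin. Bound radioligand was separated on PEI-soaked GF/C filters and counted by scintillation, and IC₅₀ came from nonlinear sigmoidal regression.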
Background: Loss of bound radioactivity is the signal in a displacement assay; it reports binding, not function.
With B1, the affinity, expressed as Ki, was 0.5 nM.

In the case of B2, the inhibition constant Ki is 1.18 nM.

B3: the Ki was 11.1 nM.

B4 came in with a Ki of 1.18 nM.

Turning to B5, affinity was put at a Ki of 8.54 nM.

By Ki is commonly meant the equilibrium dissociation constant of an inhibitor or competing ligand from its target. The low end stands for higher affinity, the high end for lower affinity.
